Experimental data: a protein production outcome set (Wang et al. 2014)

test: label from the status in PepcDB records

Protein production, failed:
MRGVRLLAVIGLVLGGLVLSGRPAQAQYAQDSLAFDLEHVFDLEYAADPQISPSGDRVVYARTVMDKMDDRRASRLWAVNADGSGHRPITAPETNASQPRWSPSGDRVAYVASTEGDGAEVFVRWMDTGQTARITQLEESPSGLSWGPEGDRLAFSMFVPAEPEPFARMPSPPEGADWAERPDVIDQTYYRSDGGGYTERGHTQLFVVSASGGTPRQITTGPYDHGGAPTWTPDGETLLISANRHADRRLDPLNTEVYAVDVASGAVTALTTRQGPDGDVALSPDGSTIAYTGFDDREQGYQVTKLYVMDRDGTNARLLTEGFDRDVQNPTFTADGEHIVFRYVDEGSTKIGRVALDGGRRVVAEHVGGTSIGRPYTSGSFSLASNGRVAFTHATPQRPADVAVAQAGREAQVLTALNDDLFGQVDLGSVEQITYESSHDGRTIEGWIVTPPGFDASQEYPLVLEIHGGPFASYGPYFSAEVQLYAAAGYVVLYTNPRGSTSYGQDFGNAIHHDYPGHDYDDLMSGVDAVLERGYVDADRLYVTGGSGGGVLTSWIVGHTDRFRAAVAAKPVINWYSWALTADMYPYGVKYWFPGLPWNHEEHYMDRSPLSYVDNVTTPTMLLTGANDYRTPMSESEQFYQALKLREVETALVRVPGASHSIAARPSHLAAKAAHVLEWFRRHGGPTPEQ
MRGVYRVMVKVYIENYGCARNRADGEIMAALLYLSGHEIVESPEESEIVVVNSCAVKDPTERKIARRIRELLDNGKKVIVTGCLPHVNPDVIDERVSAILGVKSIDRIVQAVEYAMRGEKLISVPDWKKRNLDKLDFPRLSPRNVYFILPIAEGCLNACTYCATRLARGVLKSYSPEKIIGWVKWAIKQGYKEIWLSAEDTGCYGFDIGTNLAKLIDEITAIEGEFRIRVGMMNPNHVLKFLDELIDAYKDEKVYKFLHLPVQSGDNEILRKMGRMYTVEEFEEIVKAFRREFPELNLHTDIIVGFPGESEEAFQRSVELIKRIRPDKVNVSRYSPRPGTIAAKWKQLPGWVVKERSRLLHRIRLQISYEINRKYIGKKVKVLIHGEGKKGNVDAVTMNYKHIILPEGRKGEFREARVKNAASTYLLGEIIT
MRHFRVFLRKPKRITSAAQPLETGSSGLHFSAVNPRQAPASFFPSLRRFTVRLTAARQDQLVSYFFTCFKGVSMSQSVMKKSVLRILPGLLCLALPLSSCSSSKSPKATMTATPVELRYREATEKIAKRKYNDAIVILESLMFSTRATALEDDVLKALADSYYKKKEYILAADTYRRLLQQTPDSPYARDAQFMLAKSYEKLSPFHELDQEYTVKAINEFETYLDQYPSDDSAQAANDLELYKNLMKVNPDNASYREKYEAAKEELASGSPARYSQKAISELRERLAHNRFSIARQYFKLKKYRAAEIFYDVVINQYPDTKWLESAWIGKIDSEIKQNNWFEARQSIETFQQLYPDKAKLIEPAAKRVTAHYSNKRDPKSKE
MRHPYVFPACVAGALLVAGCAPKQTDEETVERAFQDVNVVDETNLSEVMLTVTDPNEAISYYQRTLKSDPDRLDLRRGLATSFVRAKRFTEAASAWEKVTELKDSTHEDSVNYADALIRSGDWDTAEKVLDTVPPTYETFKRYRLEAMMADANKEWRKADSFYETAIGLTTTPAGAFNNWGYSKLTRGDFSGAEKLFGQAIRQDPTLFTAKNNLVLARSAQRKYTLPVVPMTQSERAQLLHTMALSAVRQGDIQTSKSLLRDAIDTHPQHFDAAVRALEALERSG
MRICLFLCLCLCMASPALAQVAVFPALSGKTDAQTLVVYSSLDEPLATPMIEGFQKANPDIAVHYEDMLTGEIYDRIVKETDAGKKTADFAFSSAMDLQVKLSNDGYAQRSDLAMSARWPAWANWRNTAYALTFEPAVFVYHKPSFTTEKPPATRAEFVDYLERHAKEVHGRIATYDIERSGVGFLFMSRDQEQFGDIWSVIKAMGAAGVKVYSTSSAILERVSDGRFVLGYNILGSYAADWASRHPDVGIVLPKDYTVVMSRIGLVPEAAANPELGRRYLEFFMSKEGQTIMARQLQIPAVSPEVAGENTANTMQAIHGAQLRPVPVSPGLMVYLDQVKRSRLIERWNEALRSQ
MRIDVESQNINVTSLKEAPIHLSGQIQPHGVLLVLEEPGLKILQVSNNTWGILGINAENILQKKLEDLLDSFQIERIQSGLSSGNLEFINPTKIWIRKKGDDYAVFDAVFHRNTEGFLILELEPAITQENIPFLSFYHLAKASINQLQKTANLRDFCQIIVQEVRKVTDFDRVMLYKFDDDGHGSVIAEEKLDSLEPYLGLHYPESDIPKPARKLFISNSIRVIPNAQAQAIQMIPALNPVSDRPVDLTNSILRSAANCHLEYLHNMGVGASLTISLIKDNKLWGLIACHHLSAKYVSYELRKACEFLGRVIFAEISAREETEDYDYRMNLTHIQSLLVEYMSQEDNFVDGLIKHQPSLLDLTSAQGAAVCFGDHCTLIGETPKAEDLVFLVQWLKNNVEEEVFYTDSLPQVYPDAERYKNVASGLLAIPISQRNYVLWFRPEVIQTVNWGGDPNQPFEVNKLDGNVRLCPRKSFELWKETVRLTSLPWRYVEIRAALELRKAIVNIVLRQADELAQLAHDLERSNAELKKFAYVASHDLQEPLNQVANYVQLLEMRYQDQLDADANEFITFAVEGVSLMQTLIDDVLAYSKVDTQAIAFQLTEVEKALDKALGNLRQRIAETGANITHDPLPTVMAGSTQLMQLFQNLIANAIKFRSEEAPQIHIGAERLEDEWLFSVRDNGIGIDPQFSDRIFVIFQRLHTRDEYHGTGMGLAICKKIIECHRGRIWVESQLGEGATFYFTIPVGGRERERRNGRKTQNNLFS
MRIFKLSPDEEERFFDNLPRFLFYYLFLFTIFWFGLTQKSAEEIRESILSGNVSPDFWRSTLVVLLLLAITDAYLMRKGDTNWNTPGAALFMLFGFFIMLLVVMYVGRASILFVVSLFLIYINTLIKTKEELRKKNH
MRIGGTTSPIASHSFYVATRGYMDKTQSEEKNRRPLAVRDLNFTKRIAVWLSQKQITPNQISLMSIAFALLGCAILAVYHYYPAPLWLILAALSIQARLLCNLFDGMVAVEGGKKTPAGELFNDVPDRIADPLLILGAGFVTTSALGMTLAWLCALLAVLTAYIRVLGVSIGGEADFQGPMAKQHRMALLTLSLLFIAALSLFDELPTFFAYTMDLTLIVMLIGLVLTVWRRLQHIYQFHAARASSSDHQGN
MRIHRLDIEAFGPFATPQHIDFDHLSAQGLFLLNGATGAGKTSILDAICFALYGSVPGARQEGKRLRSDHAAPGAEPRVVCEFSARGRRFEVTRSPAWDRPSARGRNGFTTQQAKTLLRERVAGSWEEKSSRNDEVGAELSDVLGMDREQFTRVVMLPQGDFAAFLRSKANDRLELLQKLFGTQRFEAVERQLVHQAAEAARAVQENASELKLLLDRVASEQDQLGLPAADTSAAGTEPGQEPEAWLAGVEAEVEAEWKRRQNEAAEAESLSSRLMEHFQEAQEKSQRHGRLGAAMQRRVLLELAAPRALENKEMLGKHRRAAVLSGQLEAVDSAARKLHTASARAAGLREKLDAAGLDAAKPTIALETVKASCAVLEARLPEEQRLEGITVRLAARRGELAEHLSAAEAAATVVDQLREEVSAVELEIQPLEPLADQLAEREREATAAAELVGIVARHATAASELDVITGKHLHARSASQDLRQKWLDVRELRLANAAGELAAALESGKPCAVCGSEEHPNPAQAVRTALSLAQEEEEARERFEASERALGLLAEQVSSAAQVLAGLVAQGGSADAAAAESTLADARAAALAARTAEASLEKLRVRHEALIKRIVLAQEEHDASVGAAAQASAAVHVLQEQCVALETDLAGLRGDFSSLRDRLEALEAERGLLQAAVDADRELERAEQARQDAAASLDKALSESGFASADDARREILSPADVVGLEKDLADFDAESSRLDELFGSEDLVLAAKEASIGEHPLGEAELAESKLHAANAADDARAKALSAGLAGKSAAAVARFRTEYQSLAQAGREPRNRAQMLAELADTVRGSGDNSYRMSLNAYVLAARLEQVATAASERLVAMSDGRYTLQHTDAKAARGAKSGLGLEVVDEWTGQRRDTSTLSGGESFMASLSLALGLADVVQQEAGGVDIETLFVDEGFGSLDDQALEQVMDALEGLRDGGRVVGLVSHVGEMKQRITNQLQVVKGRHGSSVRIAEAGPV
MRIHSPYPASWALAQRIGYLYSEGEIIYLADTPFERLLDIQRQVGQCQTMTSLSQADFEARLEAVFHQNTGESQQIAQDIDQSVDLLSLSEEMPANEDLLNEDSAAPVIRLINAILSEAIKETASDIHIETYEKTMSIRFRIDGVLRTILQPNKKLAALLISRIKVMARLDIAEKRIPQDGRISLRIGRRNIDVRVSTLPSIYGERAVLRLLDKNSLQLSLNNLGMTAADKQDLENLIQLPHGIILVTGPTGSGKSTTLYAILSALNTPGRNILTVEDPVEYELEGIGQTQVNTRVDMSFARGLRAILRQDPDVVMVGEIRDTETAQIAVQASLTGHLVLSTLHTNSASGAVTRLRDMGVESFLLSSSLAGIIAQRLVRRLCPQCRQFTPVSPQQAQMFKYHQLAVTTIGTPVGCPHCHQSGYQGRMAIHEMMVVTPELRAAIHENVDEQALERLVRQQHKALIKNGLQKVISGDTSWDEVMRVASATLESEA
MRIIFKIIAFLSFFAFLSGCGAGLTAFSKGERLEREGKLDEAVIKYSEAVASNPEMNEYRMRLLKTSEEAALRHLSKGDEFIALKNYDAALVEYQAAVALDPSLQRAKQESDKLVRQKNSRTYFKEGQDFERGNKPREALQAYRKALDLDGQNKEAKEALERLLSTKKTRLEGYELNLKSTKPITLKFKDANLKDVFYIVTQLSGINFIFDDTIKDQKVTIYLENANFQQALDLLTNMNKLGKKVLNESTILIFPKTPEKSKQYEDLVVKTFFLNTLDAKKAVNLLRTMLQVRKVYVNEELNAIVVRDTSELVDVAGKILEANDVPDAEVLLDVEVIEVSKRNIENFGLALSKYAVSLNTQTPGGGFLNDTFSRASVSSSTGTTIQGTAGSELLQTFSWNGYSGFMTVPSASYSFGKSITNAEVLANPKIRVKNREKSKFTVGTRVPITTTSTTGTTGGFSVNVQYVDVGVKLNAEPTIMLNNEVSIKLGLEVSSIIDKQTVGGTDSATTVVTIGTRNLDTVLNLKDGETSVIGGLIEDNKQKGKQKIFLLGDIPIIGPLLSNNSNDNQKRELILAITPRLVRSVTVPEPDLVSFWSGKEDDPSVVKPFASFELEPEFAIGQPKTVKQPAASPAPVPASVSAPAQRVAPLQPVPGSPAPTAAPQTTTSPEVKQSAAPAPGQQPAPPSTAQSQAVAPLPVPASPAAPAATVAAASAVPVAAAPAPAVRGSLNISAPAAVNLGSQFKVEIRVSDVKGLLKAPFVLIYDPIFIDYVGAVEGTFLNRDGKPTSFNAQVDKAKGRVTITLARTGAEGIDGAGSLLTATFTAKNKGPASLGLQSVNFTDQANKPIDVVPYNTVVEVK
MRILAIVKRIVNQFRRDKRTLALMFLAPLLLITLLTYLFEGDTVKPVVGVNGLSSSMVKELKENDLTIKTYPDNTNATAKIKDADLDAFFQQDGEKIKVTYENSEPSLSKEIGLKLQKALMAEQQVQVKKQAKTTGEALAKAGIDPNSLPALTNSPEKLTISTDYVYGDKDTSFFDTISPIFIGFFVFFFVFLIAGISFLRERTTGTLERLMATPIKRIELELGYLIGFGIFALLQSILVAVFSIQVLGMMQNGSLFYVLLITLTLGMVSLALGILLSTFANNEFQIVQFIPIVIVPQVLFCGIFPLDGMADWLVWIAHIMPLYYGANALTSIMVKGEGFASFANDFYILLGFVIIFVVLNIFALKKYRKV
MRILLVGAGGFVGRHLLPALLAAGHELLLTARRPPVDAPAGVRWLALDLERLAERPDSFAWPAGVDLLINAAGTMSLDEASMARVQDSGARTLFDLAAAHGAKVLQISALGAGAHPDVAFLASKAAADRHLLELGIPALVLRPSLLLGPGGASSAWLERLSPLPLIPLLDNRARLQPLHVEDLVGAVLALLRCWPERAQVIPLVGPQALTQGELLDELRRAQGWPRGRYVVPPAALLDALGGLGRRAGWRTLSPSMLKLVRHDNLADPALLDEACGYRCAPLASRLLGWPQAARSLAALMRPLMLAALVLIWLGTLVACLGPGYGWGLRILGEAGIHGWPASLAVIAGALLDGALGVGLLLRRWRRRALLAQFWLMLGYSLAISLILPHYWYDPYMAVGKNIVLMVATLWLLGDEPRTREARG
